Measured values published in FireProtDB (doi:10.1016/0168-1656(93)90129-b).

B1: Ribonuclease HI, P0A7Y4 (parent)
chain: MLKQVEIFTDGSCLGNPGPGGYGAILRYRGREKTFSAGYTRTTNNRMELMAAIVALEALKEHCEVILSTDSQYVRQGITQWIHNWKKRGWKTADKKPVKNVDLWQRLDAALGQHQIKWEWVKGHAGHPENERCDELARAAAMNPTLEDTGYQVEV

Variants of: B1
Conditions: Escherichia coli (strain K12), CD, reversible: yes, structure 2RN2, whole UniProt chain shown; for Tm / change of melting temperature, mutant - wild type (higher = more stable): Thermal; for ddG of mutation (higher = less stable) / denaturant midpoint (higher = more stable) / unfolding free energy: 25 °C, GdnHCl

| Variant | Tm (pH 7.8, Sodium phosphate 20 mM) [°C] | change of melting temperature, mutant - wild type (higher = more stable) (pH 7.8, Sodium phosphate 20 mM) [°C] | Tm (pH 3, glycine-HCl 10 mM) [°C] | change of melting temperature, mutant - wild type (higher = more stable) (pH 3, glycine-HCl 10 mM) [°C] | ddG of mutation (higher = less stable) (pH 5.5, Sodium acetate 20 mM) [kcal/mol] | denaturant midpoint (higher = more stable) (pH 5.5, Sodium acetate 20 mM) [M] | unfolding free energy (pH 5.5, Sodium acetate 20 mM) [kcal/mol] | ddG of mutation (higher = less stable) (pH 8.2, Tris-HCl 20 mM) [kcal/mol] | denaturant midpoint (higher = more stable) (pH 8.2, Tris-HCl 20 mM) [M] | unfolding free energy (pH 8.2, Tris-HCl 20 mM) [kcal/mol] | Tm (pH 5.5, Sodium acetate 20 mM) [°C] | change of melting temperature, mutant - wild type (higher = more stable) (pH 5.5, Sodium acetate 20 mM) [°C] |
| --- | --- | --- | --- | --- | --- | --- | --- | --- | --- | --- | --- | --- |
| H62A H83A | 51.5 | 1.3 | – | – | – | – | – | – | – | – | – | – |
| H114A | 42.5 | -7.7 | – | – | – | – | – | – | – | – | – | – |
| H62A | 51.2 | 1 | 50.7 | 1.3 | -0.36 | 1.86 | 9.57 | -0.58 | 1.76 | 9.07 | – | – |
| H124A | 50.3 | 0.1 | 51.1 | 1.7 | -0.17 | 1.82 | 9.38 | -0.05 | 1.66 | 8.54 | 52.7 | 0 |
| H83A | 50 | -0.2 | 51.5 | 2.1 | -0.22 | 1.83 | 9.43 | 0.09 | 1.63 | 8.4 | 52.8 | 0.1 |
| H127A | – | – | 50.3 | 0.9 | 0.24 | 1.74 | 8.97 | 0.31 | 1.59 | 8.18 | – | – |
| H62A H83A H124A H127A | 51.7 | 1.5 | 54.9 | 5.5 | – | – | – | – | – | – | – | – |
| H124A H127A | 50.1 | -0.1 | 53 | 3.6 | – | – | – | – | – | – | 52.1 | -0.6 |
